Data taken from patent US20140127211A1 (Pfizer, published 2014).

Legend:
[1] = target: T1, human Notch3 NRR recombinant protein (Notch3 NRR_Avi_His tag) (human); test: ELISA, plate-coated recombinant protein
T1 construct: Purified from CHO-PACE cells; the entry includes the C-terminal Avi and His6 tag
T1 chain: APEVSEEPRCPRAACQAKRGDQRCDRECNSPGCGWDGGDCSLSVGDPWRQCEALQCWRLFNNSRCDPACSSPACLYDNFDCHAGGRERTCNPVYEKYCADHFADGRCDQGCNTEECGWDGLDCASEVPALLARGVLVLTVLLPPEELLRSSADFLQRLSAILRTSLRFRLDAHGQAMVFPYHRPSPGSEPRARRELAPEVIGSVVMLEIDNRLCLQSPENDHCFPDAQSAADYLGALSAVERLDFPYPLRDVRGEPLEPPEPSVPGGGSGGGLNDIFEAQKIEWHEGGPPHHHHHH
Experimental: (§1) Purified human or mouse Notch3 NRR recombinant proteins were coated on CoStar hi-bound 96-well ELISA plates in 100 μl of PBS with Mg/Ca at a concentration of 1 μg/ml overnight. The plates were washed with PBS-Mg/Ca and blocked for 1 hour with 1% BSA in PBS-Mg/Ca. Blocking solution was decanted from the plate and 1:3 serial dilutions of antibodies in blocking solutions were applied to the plate. After incubation at room temperature for 1 hour, plates were washed again with PBS-Mg/Can before HRP (horse radish peroxidase)-conjugated secondary antibody diluted (1:20,000) in blocking buffer was applied. When the primary antibody tested was rat IgG, the secondary antibody was goat anti-rat IgG Fc (Bethyl Biotech); and when the primary antibody was human IgG, the secondary antibody was goat anti-human IgG Fc (Southern Biotech).
(§2) After 1 hour incubation with the secondary antibody, plates were washed again, as described above, and TMB substrate solution was added. The developing reaction was allowed for 10 minutes before the stopping solution, 0.18M H₂SO₄, was added.

[2] = target: T2, mouse Notch3 NRR recombinant protein (Notch3 NRR_Avi_His tag) (mouse); test: ELISA, plate-coated recombinant protein
T2 construct: The entry includes the C-terminal Avi and His tag; S1-cleaved heterodimer as for the human protein
T2 chain: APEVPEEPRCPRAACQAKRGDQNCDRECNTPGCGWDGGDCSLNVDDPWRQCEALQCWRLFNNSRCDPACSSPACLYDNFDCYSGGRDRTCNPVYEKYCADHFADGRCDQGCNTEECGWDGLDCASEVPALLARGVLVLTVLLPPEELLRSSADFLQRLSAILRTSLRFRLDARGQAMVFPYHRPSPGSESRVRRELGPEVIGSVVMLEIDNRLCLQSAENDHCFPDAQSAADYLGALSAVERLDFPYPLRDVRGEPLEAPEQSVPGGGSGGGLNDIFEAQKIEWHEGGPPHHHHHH
Experimental: as §1, §2

[3] = target: T3, full-length human Notch3 expressed on the cell surface (human, UniProt Q9UM47 40-2321); test: cell-based ELISA, U2OS/hNotch3 cells
T3 construct: whole, on cells; also called hNotch3; U2OS/hNotch3
Experimental: (§3) U-2 OS cells stably over-expressing human or mouse full length Notch3 protein on cell surface (hereinafter U2OS/hNotch3 and U2OS/mNotch3, respectively) were plated at 50,000 cells/well in 96 well plates (white opaque, BD/VWR) the day before ELISA assay. On the day of the ELISA, culture media was removed from wells and serially diluted (1:3 in blocking buffer) antibody solutions were applied to the plate. Plates were incubated at room temperature for 2 hours before being washed with PBS-Mg/Ca. HRP-conjugated secondary antibody was then applied and incubated with cells for 1 hour as described above for recombinant protein ELISA. Plates were washed with PBS-Mg/Ca before being developed with Pico-Chemiluminescent developing kit (Thermal Scientific), and chemiluminescence measurements were performed per manufacturer's instructions. Data plotting and analyses were performed with Microsoft Excel and Graphpad-Prism software.

[4] = target: T4, full-length mouse Notch3 expressed on the cell surface (mouse, UniProt Q61982 40-2318); test: cell-based ELISA, U2OS/mNotch3 cells
T4 construct: whole, on cells; Over-expressed on U-2 OS cells; also called U2OS/mNotch3
Experimental: as §3

[5] = target: T3, full-length human Notch3 expressed on …; test: competition ELISA on U2OS/hNotch3 cells; competitor 0.8 nM biotinylated ch28
Experimental: (§4) 96 well cell culture plates were seeded with U2OS/hNotch3 cells (cell culture plate, Co-star). […] After incubation for 2 hours, the plates were washed, as described above, and HRP-conjugated streptavidin (Southern Biotech) diluted 1:5000 in blocking buffer was applied. After incubation with streptavidin for 30 minutes, the plates were washed again before being developed with TMB solution for 10 minutes. […] Data plotting and analyses were performed with Microsoft Excel and Graphpad-Prism software.

[6] = target: T1, human Notch3 NRR recombinant protein …; test: SPR (Biacore T100), antibody captured on anti-human IgG-Fc, Notch3 NRR as analyte, 1:1 Langmuir fit
Experimental: The kinetic constants of the anti-Notch3 NRR interactions were determined by surface plasmon resonance (Biacore® T100, Biacore Inc., Piscataway, N.J.). Flow cells of a CM5 chip were immobilized with approximately 10,000 response units (RU) of anti-human IgG-Fc (Biacore®) in 10 mM Glycine, pH 5.0 at 10 μl/min for 600 seconds. […] Association of four concentrations of human Notch3 NRR recombinant protein (from 3.7-100 nM) and a zero concentration (running buffer) at 100 μl/min were recorded for 3 minutes in TBS with 1 mM CaCl₂. Dissociation of the complexes was measured for 10 minutes. The surface of the chip was regenerated by injecting 3M MgCl₂ with 3 mM EGTA for 60 seconds at 10 μl/min. Curves obtained after subtraction of the reference and buffer signals were fitted to a 1:1 Langmuir binding model with Biacore® T100 Evaluation Software (Biacore®).

[7] = target: T5, Notch 1-3 NRR domain swap chimera: A of Notch1; B, C, hd1, hd2 of Notch3 (row 4, unnamed on the sheet) (human); test: ELISA: NRR-Fc protein coated at 1 ug/ml, antibody applied at 5 ug/ml, goat anti-human Fc-HRP, TMB, O.D. 450 nM
T5 construct: part of the NRR
Experimental: (§5) After 1 hour of incubation, plates were washed with PBS with 0.9 mM Mg²⁺ and Ca²⁺, before secondary goat anti-human Fc antibody conjugated with HRP were applied and incubated on the plates. After washing again, the plates were developed with TMB and the developing reactions were stopped by adding 0.18M H₂SO₄.

[8] = target: T6, Notch 1-3 NRR domain swap chimera: B of Notch1; A, C, hd1, hd2 of Notch3 (row 5, unnamed on the sheet) (human); test: as above
T6 construct: part of the NRR
Experimental: as §5

[9] = target: T7, Notch 1-3 NRR domain swap chimera: hd2 of Notch1; A, B, C, hd1 of Notch3 (row 8, unnamed on the sheet) (human); test: as above
T7 construct: part of the NRR
Experimental: as §5

Notch3-NRR = Notch3-NRR (human); test: as above
Experimental: as §5

human Notch1 NRR-Fc = target: T8, human Notch1 NRR-Fc (human, UniProt P46531 1446-1733, limits assumed); test: as above
T8 construct: domain: NRR region; Made in CHO-PACE cells; not shown: human IgG1 Fc fragment
T8 sequence (looked up): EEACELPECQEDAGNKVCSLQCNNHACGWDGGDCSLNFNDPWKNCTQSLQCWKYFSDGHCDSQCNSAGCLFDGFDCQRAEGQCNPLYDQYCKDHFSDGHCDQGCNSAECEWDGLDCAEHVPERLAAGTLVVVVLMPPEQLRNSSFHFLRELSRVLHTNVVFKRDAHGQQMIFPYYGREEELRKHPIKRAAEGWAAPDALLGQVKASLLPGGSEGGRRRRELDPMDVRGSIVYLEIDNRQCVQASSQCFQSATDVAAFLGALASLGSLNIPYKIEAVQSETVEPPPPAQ

[10] = target: T3, full-length human Notch3 expressed on …; test: cell-based or functional assay
[11] = target: T3, full-length human Notch3 expressed on …; test: cell-based or functional assay; remark: listed apart in the source
[12] = target: T3, full-length human Notch3 expressed on …; test: cell-based ELISA, HCC2429 cells; SD 0.063
Experimental: (§6) On the day of the ELISA, culture media was removed from wells and serially diluted (1:3 in DPBS with calcium chloride and magnesium chloride (Ca/Mg) and 1% BSA) antibody and ADC solutions were applied to the plate. Plates were incubated at room temperature for 2 hours before washed with DPBS with Ca/Mg and 1% BSA. HRP-conjugated secondary antibody was then applied and incubated with cells for 1 hour. Plates were washed with DPBS with Ca/Mg and 1% BSA before being developed with Pico-Chemiluminescent developing kit (Thermal Scientific), and chemiluminescence measurements were performed per manufacturer's instructions. Data plotting and analyses were performed with Microsoft Excel and Graphpad-Prism software.

[13] = target: T3, full-length human Notch3 expressed on …; test: cell-based ELISA, MDA-MB-468 cells; SD 0.062
Experimental: as §6

[14] = target: T3, full-length human Notch3 expressed on …; test: cell-based ELISA, U2OS/hNotch3 cells; SD 0.041
Experimental: as §6

[15] = target: T3, full-length human Notch3 expressed on …; test: cell-based ELISA, HCC2429 cells; SD 0.053
Experimental: as §6

[16] = target: T3, full-length human Notch3 expressed on …; test: cell-based ELISA, MDA-MB-468 cells; SD 0.176
Experimental: as §6

[17] = target: T3, full-length human Notch3 expressed on …; test: cell-based ELISA, U2OS/hNotch3 cells; SD 0.160
Experimental: as §6

[18] = target: T3, full-length human Notch3 expressed on …; test: competition ELISA on U2OS/hNotch3 cells; competitor 0.8 nM biotinylated ch75
Experimental: as §4

[19] = target: T3, full-length human Notch3 expressed on …; test: cell-based ELISA, HCC2429 cells; SD 0.115
Experimental: as §6

[20] = target: T3, full-length human Notch3 expressed on …; test: cell-based ELISA, MDA-MB-468 cells; SD 0.167
Experimental: as §6

[21] = target: T3, full-length human Notch3 expressed on …; test: cell-based ELISA, U2OS/hNotch3 cells; SD 0.057
Experimental: as §6

[22] = target: T3, full-length human Notch3 expressed on …; test: cell-based ELISA, HCC2429 cells; SD 0.034
Experimental: as §6

[23] = target: T3, full-length human Notch3 expressed on …; test: cell-based ELISA, MDA-MB-468 cells; SD 0.046
Experimental: as §6

[24] = target: T3, full-length human Notch3 expressed on …; test: cell-based ELISA, U2OS/hNotch3 cells; SD 0.008
Experimental: as §6

T3 sequence (Q9UM47 40-2321): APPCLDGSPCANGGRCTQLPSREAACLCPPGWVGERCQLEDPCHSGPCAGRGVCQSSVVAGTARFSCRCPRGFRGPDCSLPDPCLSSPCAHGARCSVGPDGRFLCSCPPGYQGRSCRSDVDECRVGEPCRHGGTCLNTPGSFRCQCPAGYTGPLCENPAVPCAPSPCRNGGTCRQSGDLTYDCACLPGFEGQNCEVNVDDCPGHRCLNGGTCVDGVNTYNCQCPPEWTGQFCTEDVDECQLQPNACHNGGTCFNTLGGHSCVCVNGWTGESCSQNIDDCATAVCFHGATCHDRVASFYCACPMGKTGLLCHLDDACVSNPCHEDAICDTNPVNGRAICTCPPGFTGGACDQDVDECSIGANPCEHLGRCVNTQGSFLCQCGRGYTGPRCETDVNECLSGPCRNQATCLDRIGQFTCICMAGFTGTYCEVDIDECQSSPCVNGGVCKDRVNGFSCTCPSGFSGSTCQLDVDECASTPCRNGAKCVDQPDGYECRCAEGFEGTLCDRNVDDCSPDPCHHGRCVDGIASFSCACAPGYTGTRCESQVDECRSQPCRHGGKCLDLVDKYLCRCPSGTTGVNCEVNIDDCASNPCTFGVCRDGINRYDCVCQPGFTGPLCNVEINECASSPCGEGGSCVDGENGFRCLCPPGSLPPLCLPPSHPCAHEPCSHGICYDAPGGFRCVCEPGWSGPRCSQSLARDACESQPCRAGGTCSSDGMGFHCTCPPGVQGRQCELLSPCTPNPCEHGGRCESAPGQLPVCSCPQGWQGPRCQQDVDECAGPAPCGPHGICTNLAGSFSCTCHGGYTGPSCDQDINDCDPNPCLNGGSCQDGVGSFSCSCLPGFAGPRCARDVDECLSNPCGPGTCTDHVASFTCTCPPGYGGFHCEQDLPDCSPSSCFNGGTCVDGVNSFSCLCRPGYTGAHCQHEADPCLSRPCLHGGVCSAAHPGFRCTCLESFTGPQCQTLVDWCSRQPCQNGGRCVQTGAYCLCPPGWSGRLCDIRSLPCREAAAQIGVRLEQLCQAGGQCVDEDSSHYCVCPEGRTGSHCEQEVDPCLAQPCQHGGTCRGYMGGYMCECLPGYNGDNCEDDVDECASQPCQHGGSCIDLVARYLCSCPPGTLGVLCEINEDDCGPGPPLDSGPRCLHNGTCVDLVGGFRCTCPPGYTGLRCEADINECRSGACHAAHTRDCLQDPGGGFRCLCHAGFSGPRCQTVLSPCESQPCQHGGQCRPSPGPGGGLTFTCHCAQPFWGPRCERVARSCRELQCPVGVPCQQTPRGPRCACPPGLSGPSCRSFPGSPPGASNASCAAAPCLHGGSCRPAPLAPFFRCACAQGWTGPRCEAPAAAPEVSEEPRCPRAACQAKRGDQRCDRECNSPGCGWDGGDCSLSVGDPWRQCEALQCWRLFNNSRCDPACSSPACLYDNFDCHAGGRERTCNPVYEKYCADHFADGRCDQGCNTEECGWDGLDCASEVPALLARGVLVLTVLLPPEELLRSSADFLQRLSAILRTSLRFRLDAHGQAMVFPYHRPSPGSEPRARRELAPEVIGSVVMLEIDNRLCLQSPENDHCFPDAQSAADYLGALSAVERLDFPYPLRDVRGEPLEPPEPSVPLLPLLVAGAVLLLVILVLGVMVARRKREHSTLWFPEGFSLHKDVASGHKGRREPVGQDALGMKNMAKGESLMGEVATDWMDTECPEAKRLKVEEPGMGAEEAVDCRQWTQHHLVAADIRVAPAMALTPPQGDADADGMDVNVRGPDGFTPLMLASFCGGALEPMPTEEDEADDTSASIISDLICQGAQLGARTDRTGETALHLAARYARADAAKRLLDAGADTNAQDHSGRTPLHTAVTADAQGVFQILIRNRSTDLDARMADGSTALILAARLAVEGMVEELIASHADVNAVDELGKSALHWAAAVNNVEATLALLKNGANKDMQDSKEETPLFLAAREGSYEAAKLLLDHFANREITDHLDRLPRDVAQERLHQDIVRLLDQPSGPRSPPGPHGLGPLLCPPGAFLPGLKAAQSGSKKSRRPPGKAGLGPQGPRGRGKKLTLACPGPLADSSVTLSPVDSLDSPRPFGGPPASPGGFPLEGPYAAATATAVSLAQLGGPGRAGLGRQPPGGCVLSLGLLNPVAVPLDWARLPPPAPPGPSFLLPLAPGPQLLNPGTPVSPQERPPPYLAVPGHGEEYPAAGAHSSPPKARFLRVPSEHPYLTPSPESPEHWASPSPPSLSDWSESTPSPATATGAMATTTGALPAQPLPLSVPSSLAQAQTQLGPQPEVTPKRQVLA
T4 sequence (Q61982 40-2318): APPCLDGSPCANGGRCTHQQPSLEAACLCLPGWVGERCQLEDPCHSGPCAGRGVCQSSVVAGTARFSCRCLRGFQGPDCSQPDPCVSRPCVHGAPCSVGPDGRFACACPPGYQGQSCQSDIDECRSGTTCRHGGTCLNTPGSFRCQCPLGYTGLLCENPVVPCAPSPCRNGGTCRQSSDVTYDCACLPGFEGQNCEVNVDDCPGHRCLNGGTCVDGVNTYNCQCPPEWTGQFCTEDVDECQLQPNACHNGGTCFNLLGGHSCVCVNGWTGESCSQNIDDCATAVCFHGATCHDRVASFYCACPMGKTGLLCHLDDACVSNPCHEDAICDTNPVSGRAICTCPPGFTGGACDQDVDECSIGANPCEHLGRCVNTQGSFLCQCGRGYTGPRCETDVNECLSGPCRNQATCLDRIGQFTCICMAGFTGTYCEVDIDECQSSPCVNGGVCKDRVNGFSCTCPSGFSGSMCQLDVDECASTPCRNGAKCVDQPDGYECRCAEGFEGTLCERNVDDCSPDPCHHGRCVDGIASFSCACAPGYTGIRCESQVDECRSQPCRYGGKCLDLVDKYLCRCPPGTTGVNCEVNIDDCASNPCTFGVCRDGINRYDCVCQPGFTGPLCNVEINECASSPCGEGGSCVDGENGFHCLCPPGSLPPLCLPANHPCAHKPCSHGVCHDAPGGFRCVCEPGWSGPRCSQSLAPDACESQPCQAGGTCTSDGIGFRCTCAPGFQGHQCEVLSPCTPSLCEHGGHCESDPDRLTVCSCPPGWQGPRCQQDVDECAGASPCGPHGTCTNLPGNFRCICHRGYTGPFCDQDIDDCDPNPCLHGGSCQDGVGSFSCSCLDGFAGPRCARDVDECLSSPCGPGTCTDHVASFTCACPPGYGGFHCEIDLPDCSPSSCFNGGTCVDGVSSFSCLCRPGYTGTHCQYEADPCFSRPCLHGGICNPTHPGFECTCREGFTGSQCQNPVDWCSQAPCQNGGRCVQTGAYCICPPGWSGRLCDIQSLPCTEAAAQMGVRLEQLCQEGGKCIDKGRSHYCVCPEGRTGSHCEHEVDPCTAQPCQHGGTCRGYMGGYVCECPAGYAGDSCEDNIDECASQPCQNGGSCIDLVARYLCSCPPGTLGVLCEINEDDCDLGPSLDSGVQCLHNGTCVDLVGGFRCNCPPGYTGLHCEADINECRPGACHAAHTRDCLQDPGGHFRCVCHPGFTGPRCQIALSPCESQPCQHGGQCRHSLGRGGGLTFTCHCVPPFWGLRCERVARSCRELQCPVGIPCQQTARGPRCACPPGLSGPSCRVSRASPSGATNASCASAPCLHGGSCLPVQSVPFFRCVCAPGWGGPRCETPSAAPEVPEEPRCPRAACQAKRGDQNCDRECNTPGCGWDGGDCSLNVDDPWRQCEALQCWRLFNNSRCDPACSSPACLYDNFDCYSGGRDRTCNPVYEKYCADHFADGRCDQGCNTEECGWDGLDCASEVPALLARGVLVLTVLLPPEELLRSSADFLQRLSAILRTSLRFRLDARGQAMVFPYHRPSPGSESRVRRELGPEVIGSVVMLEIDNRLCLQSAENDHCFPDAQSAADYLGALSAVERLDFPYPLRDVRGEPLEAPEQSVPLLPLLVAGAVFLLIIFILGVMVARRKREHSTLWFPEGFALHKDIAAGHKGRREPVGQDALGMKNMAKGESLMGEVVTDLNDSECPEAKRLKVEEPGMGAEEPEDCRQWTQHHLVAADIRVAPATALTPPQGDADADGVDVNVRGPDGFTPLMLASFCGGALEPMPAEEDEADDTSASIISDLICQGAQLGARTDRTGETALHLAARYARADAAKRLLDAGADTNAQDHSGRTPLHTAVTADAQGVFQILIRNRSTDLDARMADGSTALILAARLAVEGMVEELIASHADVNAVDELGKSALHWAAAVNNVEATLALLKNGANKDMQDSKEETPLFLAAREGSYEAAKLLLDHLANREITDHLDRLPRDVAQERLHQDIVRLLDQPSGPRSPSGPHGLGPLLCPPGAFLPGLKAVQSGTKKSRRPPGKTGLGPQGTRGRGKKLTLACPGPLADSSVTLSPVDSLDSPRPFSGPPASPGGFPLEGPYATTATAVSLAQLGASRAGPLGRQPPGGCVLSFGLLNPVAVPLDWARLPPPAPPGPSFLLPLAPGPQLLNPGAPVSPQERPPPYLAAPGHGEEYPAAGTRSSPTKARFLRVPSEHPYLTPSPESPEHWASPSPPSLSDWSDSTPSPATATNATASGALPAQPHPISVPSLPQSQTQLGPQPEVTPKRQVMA

B1: rat-human chimeric antibody 28 (ch28) (antibody, V domains shown)
VH: EVQLVESGGGLVQPGRSLTLSCVASGFTFRDYGMTWIRQAPGKGLTWVAYISSGSNYIYYAEAVKGRFTISRDNAKNTLYLQMTSLRSEDTALYFCTRRGPFVLDAWGQGASVTVSS
VL: DIQMTQSPSFLSASVGDRVTINCKASQSINRYLHWFQQKLGEAPKLLIYNANGLQTGIPSRFSGSGSGTDFTLTISSLQSEDVATYFCLQHNTWPDTFGAGTKLELK
notes: also called ch28-hIgG1; ch28-hulgG1
EC50 [1]: ≤ 1 nM | EC50 [2]: ≤ 1 nM | EC50 [3]: 0.098 nM | EC50 [4]: 0.13 nM | EC50 [5]: 3 nM | Kd [6]: 0.61 nM | koff [6]: 0.000249 s⁻¹ | kon [6]: 409000 M⁻¹ s⁻¹ | O.D. 450 nM (ELISA, relative binding capacity) [7]: 0.15 | O.D. 450 nM (ELISA, relative binding capacity) [8]: 0.54 | O.D. 450 nM (ELISA, relative binding capacity) [9]: 0.5 | O.D. 450 nM (ELISA, relative binding capacity) (Notch3-NRR): 2.06 | binding result (human Notch1 NRR-Fc): no binding (tested: 5 ug/ml)

B2: hu75-vc6780 (Notch3-75-v1913-hG1-(C)_mcValCitPABC-#112) (antibody, human IgG1, kappa, V domains shown)
VH: EVQLVESGGGLVQPGGSLRLSCAASGYAFTDYWMTWVRQAPGKGLEWVAEISPNSGGTNFNEKFKGRFTISVDNAKNSLYLQMNSLRAEDTAVYYCARGEIRYNWFAYWGQGTLVTVSS
VL: DIQMTQSPSSLSASVGDRVTITCKASQNVGNNIAWYQQKPGKAPKLLIYYASNRYTGVPSRFSGSGYGTDFTLTISSLQPEDFATYYCQRLYNSPFTFGGGTKVEIKR
modifications: vc6780 linker-payload on cysteine residues after partial reduction; sites not specified
notes: Antibody-drug conjugate of hu75
IC50 of cytotoxicity (MTS viability), HCC2429 cells, repeat 1 [10]: 214 ng Ab/mL | IC50 of cytotoxicity (MTS viability), HCC2429 cells, repeat 2 [10]: 630 ng Ab/mL | IC50 of cytotoxicity (MTS viability), MDA-MB-468/hNotch3 cells, repeat 1 [10]: 26 ng Ab/mL | IC50 of cytotoxicity (MTS viability), MDA-MB-468/hNotch3 cells, repeat 2 [10]: 25 ng Ab/mL | IC50 of cytotoxicity (MTS viability), OVCAR3 cells [10]: 254 ng Ab/mL | IC50 of cytotoxicity, MDA-MB-468/hNotch3 cells, Notch3 siRNA (reduced Notch3 expression) [11]: 7980 ng Ab/mL | IC50 of cytotoxicity, MDA-MB-468/hNotch3 cells, control siRNA [11]: 17 ng Ab/mL | EC50 [12]: 0.343 nM | EC50 [13]: 1.8 nM | EC50 [14]: 0.723 nM

B3: hu75 (humanized r75 variant VH1.9/VL1.3) (antibody, human IgG1, kappa, V domains shown)
VH: EVQLVESGGGLVQPGGSLRLSCAASGYAFTDYWMTWVRQAPGKGLEWVAEISPNSGGTNFNEKFKGRFTISVDNAKNSLYLQMNSLRAEDTAVYYCARGEIRYNWFAYWGQGTLVTVSS
VL: DIQMTQSPSSLSASVGDRVTITCKASQNVGNNIAWYQQKPGKAPKLLIYYASNRYTGVPSRFSGSGYGTDFTLTISSLQPEDFATYYCQRLYNSPFTFGGGTKVEIKR
notes: Human IgG1/kappa; also called hu75 VH1.9/VL1.3; hu75 VH1.9/V1.3
EC50 [3]: 0.22 nM | EC50 [15]: 0.335 nM | EC50 [16]: 1.28 nM | EC50 [17]: 0.585 nM | EC50 [18]: 1.7 nM | Kd [6]: 9.76 nM

B4: hu75-vc0101 (Notch3-75-v1913-hG1-(C)_mcValCitPABC-#54) (antibody, human IgG1, kappa, V domains shown)
VH: EVQLVESGGGLVQPGGSLRLSCAASGYAFTDYWMTWVRQAPGKGLEWVAEISPNSGGTNFNEKFKGRFTISVDNAKNSLYLQMNSLRAEDTAVYYCARGEIRYNWFAYWGQGTLVTVSS
VL: DIQMTQSPSSLSASVGDRVTITCKASQNVGNNIAWYQQKPGKAPKLLIYYASNRYTGVPSRFSGSGYGTDFTLTISSLQPEDFATYYCQRLYNSPFTFGGGTKVEIKR
modifications: vc0101 linker-payload on cysteine residues after partial reduction; sites not specified
notes: as for B2
IC50 of cytotoxicity (MTS viability), HCC2429 cells, repeat 1 [10]: 611 ng Ab/mL | IC50 of cytotoxicity (MTS viability), HCC2429 cells, repeat 2 [10]: 3300 ng Ab/mL | IC50 of cytotoxicity (MTS viability), MDA-MB-468/hNotch3 cells, repeat 1 [10]: 37 ng Ab/mL | IC50 of cytotoxicity (MTS viability), MDA-MB-468/hNotch3 cells, repeat 2 [10]: 36 ng Ab/mL | IC50 of cytotoxicity (MTS viability), MDA-MB-468 cells [10]: 7000 ng Ab/mL | IC50 of cytotoxicity (MTS viability), OVCAR3 cells [10]: 515 ng Ab/mL | IC50 of cytotoxicity (MTS viability), U2OS/hNotch3 cells [10]: 523 ng Ab/mL | IC50 of cytotoxicity, MDA-MB-468/hNotch3 cells, Notch3 siRNA (reduced Notch3 expression) [11]: 3190 ng Ab/mL | IC50 of cytotoxicity, MDA-MB-468/hNotch3 cells, control siRNA [11]: 29 ng Ab/mL | EC50 [19]: 0.427 nM | EC50 [20]: 2.02 nM | EC50 [21]: 0.798 nM

B5: hu28-vc6780 (Notch3-28-v1010-hG1-(C)_mcValCitPABC-#112) (antibody, human IgG1, kappa, V domains shown)
VH: EVQLVESGGGLVQPGGSLRLSCAASGFTFRDYGMTWVRQAPGKGLEWVAYISSGSNYIYYAEAVKGRFTISRDNAKNSLYLQMNSLRAEDTAVYYCARRGPFVLDAWGQGTLVTVSS
VL: DIQMTQSPSSLSASVGDRVTITCKASQSINRYLHWYQQKPGKAPKLLIYNANGLQTGVPSRFSGSGSGTDFTLTISSLQPEDFATYYCLQHNTWPDTFGGGTKVEIKR
modifications: vc6780 linker-payload on cysteine residues after partial reduction; sites not specified
notes: Antibody-drug conjugate of hu28
IC50 of cytotoxicity (MTS viability), HCC2429 cells, repeat 1 [10]: 148 ng Ab/mL | IC50 of cytotoxicity (MTS viability), HCC2429 cells, repeat 2 [10]: 2050 ng Ab/mL | IC50 of cytotoxicity (MTS viability), MDA-MB-468/hNotch3 cells, repeat 1 [10]: 1.3 ng Ab/mL | IC50 of cytotoxicity (MTS viability), MDA-MB-468/hNotch3 cells, repeat 2 [10]: 3 ng Ab/mL | IC50 of cytotoxicity (MTS viability), OVCAR3 cells [10]: 17 ng Ab/mL | IC50 of cytotoxicity, MDA-MB-468/hNotch3 cells, control siRNA [11]: 2 ng Ab/mL | EC50 [22]: 0.154 nM | EC50 [23]: 0.242 nM | EC50 [24]: 0.236 nM
